Patent US20220074941A1, “HSP90 COMBINATION THERAPY” (Sloan-Kettering Institute for Cancer Research, priority 2011, published 2022)

Experiments:
[1] = system: Hsp90 complexes in K562 cell extract; test: Nano-LC-MS/MS of PU-beads pull-downs; format: binding; details: protein identified in PU-beads pull-down of K562 cell extract, QSTAR-Elite QTof MS
How it was run: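 Proteins were identified by data-dependent nano LC-MS/MS (QTof, ESI) and Mascot searching (p<0.05), then reported as spectral counts and coverage via Scaffold. Inputs were PU-bead versus control-bead pull-downs from lysate pre-cleared with control beads overnight at 4 °C, eluted by boiling in 2% SDS.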

[2] = system: Hsp90 complexes in Mia-PaCa-2 cell extract; test: Nano-LC-MS/MS of PU-beads pull-downs; format: binding, human; details: protein identified in PU-beads pull-down of Mia-PaCa-2 cell extract; QSTAR-Elite QTof MS
How it was run: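 They came from PU-bead pull-downs of pre-cleared lysates (control beads, overnight, 4 °C), eluted by boiling in 2% SDS, gel-separated and run by data-dependent nano-ESI QTof MS/MS.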

B1: O60613 (protein, UniProt O60613 1-165, looked up)
chain: MVAMAAGPSGCLVPAFGLRLLLATVLQAVSAFGAEFSSEACRELGFSSNLLCSSCDLLGQFNLLQLDPDCRGCCQEEAQFETKKLYAGAILEVCGUKLGRFPQVQAFVRSDKPKLFRGLQIKYVRGSDPVLKLLDDNGNIAEELSILKWNTDSVEEFLSEKLERI
modifications: full-length
Number of Assigned Spectra, K562 Prep 1 ([1]; Prep 1): 0
Number of Assigned Spectra, K562 Prep 2 ([1]; Prep 2): 0
Number of Assigned Spectra, Mia-Paca 2 [2]: 2
